Experimental data as given in patent US12215133 (BRIGHTGENE BIO MEDICAL TECHNOLOGY, dated 2025).

Tests used:
GIP receptor = target: T1, GIP receptor; assay: cell-based or functional assay
T1 sequence (P48546 whole entry, species assumed, looked up): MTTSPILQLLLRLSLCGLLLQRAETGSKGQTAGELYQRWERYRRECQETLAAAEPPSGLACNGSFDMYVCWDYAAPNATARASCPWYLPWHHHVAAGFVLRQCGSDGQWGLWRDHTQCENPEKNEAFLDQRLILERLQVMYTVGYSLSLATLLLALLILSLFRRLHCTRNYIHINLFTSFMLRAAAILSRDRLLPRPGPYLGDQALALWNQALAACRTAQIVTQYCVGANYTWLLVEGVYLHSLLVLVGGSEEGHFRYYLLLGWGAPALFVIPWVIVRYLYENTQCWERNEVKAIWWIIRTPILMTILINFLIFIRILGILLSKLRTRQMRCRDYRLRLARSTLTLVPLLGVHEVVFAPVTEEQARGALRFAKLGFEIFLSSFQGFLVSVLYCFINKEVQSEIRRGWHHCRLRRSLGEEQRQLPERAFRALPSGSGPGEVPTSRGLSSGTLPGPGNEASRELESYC

GLP-1 receptor = assay: cell-based or functional assay

Row | Binder | cAMP experimental result of GIP receptor, EC50 (GIP receptor) [nM] | cAMP experimental result of GLP-1 receptor, EC50 (GLP-1 receptor) [nM]
1 | YXEGTFTSDYSIXLDKIAQKAFVQWLIAGGPSSGAPPPSK (Aib (2-aminoisobutyric acid) at positions 2 and 13; Lys at position 40 carries on its side chain AEEEA-AEEEA-gamma-Glu-icosanedioic acid (Fmoc-AEEEA-OH, Fmoc-AEEEA-OH, Fmoc-Glu-OtBu and 20-(tert-butoxy)-20-oxoicosanoic acid condensed in turn); C-terminal amide (made on Rink MBHA Amide resin)) [BG128] | 0.279 | 0.11
2 | YXEGTFTSDYSIXLDKIAQKAFVQWLIAGGPSSGAPPPS (Aib at positions 2 and 13; by the synthesis order the Lys(Alloc) at position 16 carries AEEEA-AEEEA-gamma-Glu-icosanedioic acid on its side chain; C-terminal amide (Rink MBHA Amide resin)) [BGM125] | 0.684 | 0.0692
